Results published in patent EP1728864A1 (dated 2006).

T1: human gp39 (cell-expressed, full length) (human, UniProt P29965 1-261)
T1 sequence (looked up): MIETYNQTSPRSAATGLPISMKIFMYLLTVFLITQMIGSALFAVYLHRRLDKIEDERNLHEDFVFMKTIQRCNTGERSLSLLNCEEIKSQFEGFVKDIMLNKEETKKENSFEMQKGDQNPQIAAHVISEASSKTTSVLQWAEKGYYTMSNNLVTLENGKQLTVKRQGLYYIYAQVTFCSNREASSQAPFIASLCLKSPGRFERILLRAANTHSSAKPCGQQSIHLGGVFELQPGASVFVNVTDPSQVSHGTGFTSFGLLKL


Experiments:
[1] = biological target: T1, human gp39 (cell-expressed, full length); experiment: cell-based or functional assay
[2] = biological target: sgp39 mutant E129/A (murine; human); experiment: ELISA on captured mutant sgp39
[3] = biological target: sgp39 mutant S131/A-T135/A (murine; human); experiment: ELISA on captured mutant sgp39
[4] = biological target: sgp39 mutant Y145/A (murine; human); experiment: ELISA on captured mutant sgp39
[5] = biological target: sgp39 mutant N180/A (murine; human); experiment: ELISA on captured mutant sgp39
[6] = biological target: sgp39 mutant F201/A-E202/A (murine; human); experiment: ELISA on captured mutant sgp39
[7] = biological target: sgp39 mutant K143/A (murine; human); experiment: ELISA on captured mutant sgp39
[8] = biological target: T1, human gp39 (cell-expressed, full length); experiment: saturation binding of iodinated protein to BMS-10 Jurkat cells
[9] = biological target: T1, human gp39 (cell-expressed, full length); experiment: saturation binding of radiolabeled protein to gp39+ Jurkat cells

Row | IgG synthesis, % of medium only control, 0.94 x10^12 binding sites/ml [1] [%] | IgG synthesis, % of medium only control, 1.88 x10^12 binding sites/ml [1] [%] | IgG synthesis, % of medium only control, 3.76 x10^12 binding sites/ml [1] [%] | IgG synthesis, % of medium only control, 7.53 x10^12 binding sites/ml [1] [%] | IgM synthesis, % of medium only control, 0.94 x10^12 binding sites/ml [1] [%] | IgM synthesis, % of medium only control, 1.88 x10^12 binding sites/ml [1] [%] | IgM synthesis, % of medium only control, 3.76 x10^12 binding sites/ml [1] [%] | IgM synthesis, % of medium only control, 7.53 x10^12 binding sites/ml [1] [%] | % of binding to wild-type sgp39 [2] [%] | % of binding to wild-type sgp39 [3] [%] | % of binding to wild-type sgp39 [4] [%] | % of binding to wild-type sgp39 [5] [%] | % of binding to wild-type sgp39 [6] [%] | % of binding to wild-type sgp39 [7] [%] | Kd [8] [nM] | fold greater affinity than 106 sFv-Ig [9] [fold] | Binder
1 | 60 | 11 | 17 | 12 | 64 | 29 | 24 | 14 | 70 | 89 | 106 | 93 | 112 | 5 | – | – | 39-1.7 (antibody, mouse IgG2b, V domains shown) VH: EVQLQQSGPELVKPGASVKMSCKASGYTFTDYYMKWVKQSHGKSLEWIGNINPNNGDTFFNQKFEGKATLTVDKSSSAAYMQLNSLTSEDSAVKKCARGPGTNYFDYWGQGTTLTVSS VL: DIVLTQSPVSLAVSLGQRVTISCRASQSVSSSTNSYMHWYQQKPGQPPKLLIKYASNLESGVPARFSGSGSGTDFTLNIHPVEEEDTATYYCQHSWEIPFTFGSGTKLEIRR
2 | 21 | 10 | 12 | 14 | 19 | 12 | 12 | 12 | – | – | – | – | – | – | 1.6 | – | 106 sFv-Ig (scFv, VL-linker-VH-human Ig, monomeric; L6 V kappa leader used for secretion; not shown: hinge-CH2-CH3 of human IgG1) scFv: DIQMTQSPASLSASVGETVTITCRASETIYSYLAWYQQKQGRSPQLLVYNAKTLAEGVPSRFSGSGSGTQFSLKINSLQPEDFGSYYCQHHYNTPLTFGTGTKLELKRGGGGSGGGGSGGGGSEVKLVESGGGLVKPGGSLKLSCTTSGFTFNNYAMSWVRQTPEKRLEWVASISSGDSTYYFDSVRGRFTISRDNARNILYLQMSSLRSEDTAMYYCARHYDYDSYAMDYWGQGTSVTVS
3 | 37 | 26 | 24 | 11 | 34 | 27 | 19 | 25 | 130 | 113 | 124 | 144 | 9 | 52 | 0.4 | ~3 | 39-1.106 (antibody, mouse IgG1, V domains shown, murine IgG1, kappa) VH: EVKLVESGGGLVKPGGSLKLSCTTSGFTFNNYAMSWVRQTPEKRLEWVASISSGDSTYYFDSVRGRFTISRDNARNILYLQMSSLRSEDTAMYYCARHYDYDSYAMDYWGQGTSVTVS VL: DIQMTQSPASLSASVGETVTITCRASETIYSYLAWYQQKQGRSPQLLVYNAKTLAEGVPSRFSGSGSGTQFSLKINSLQPEDFGSYYCQHHYNTPLTFGTGTKLELKR
